The values below come from patent publication US20260109776A1 (Amgen, published 2026).

For test [1], the target named is T1, human TNFR2 (human, UniProt P20333 23-461).
T1 construct: whole, on cells
T1 sequence (looked up): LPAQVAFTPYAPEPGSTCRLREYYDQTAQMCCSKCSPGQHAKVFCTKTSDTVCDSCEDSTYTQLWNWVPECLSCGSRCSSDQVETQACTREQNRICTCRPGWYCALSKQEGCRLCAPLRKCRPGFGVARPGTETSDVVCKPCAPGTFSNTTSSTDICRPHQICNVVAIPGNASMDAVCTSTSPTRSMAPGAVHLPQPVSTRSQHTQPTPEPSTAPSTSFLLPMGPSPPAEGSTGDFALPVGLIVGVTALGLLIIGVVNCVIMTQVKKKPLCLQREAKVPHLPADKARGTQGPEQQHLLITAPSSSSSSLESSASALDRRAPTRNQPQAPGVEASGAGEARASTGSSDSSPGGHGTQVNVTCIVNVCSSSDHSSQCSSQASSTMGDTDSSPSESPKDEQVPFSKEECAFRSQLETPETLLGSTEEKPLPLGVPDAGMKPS
The test can be described thus: flow cytometry, HEK293 transfectants. The method, then: (§1) The binding affinity of anti-human CD40 antibodies to human and cynomolgus monkey CD40 was measured by Octet assay (Table 3), quantifying association rate (Kon), disassociation rate (Kdis), and equilibrium binding constant (KD). Cross-reactivity of anti-CD40 antibodies to related TNF receptor superfamily (TNFRSF) members was evaluated by expressing human TNFR1, TNFR2, TNFR10, or TNFR14 on HEK293 cells by transient transfection of expression vectors encoding these genes. Binding of indicated anti-human CD40 antibody to these transfected cells was determined by flow cytometry. […] Cross-reactivity of anti-CD40 antibodies to cynomolgus monkey and mouse CD40 was evaluated by expressing cynomolgus monkey or mouse CD40 on HEK293 cells by transient transfection of expression vectors encoding these genes. Binding of indicated anti-human CD40 antibody to cells overexpressing cynomolgus monkey and mouse CD40 was determined by flow cytometry.
In general terms: A flow cytometer gives signals particle by particle.

In test [2] the target is T2, human TNFR14 (human, UniProt Q92956 39-283).
T2 construct: whole, on cells
T2 sequence (looked up): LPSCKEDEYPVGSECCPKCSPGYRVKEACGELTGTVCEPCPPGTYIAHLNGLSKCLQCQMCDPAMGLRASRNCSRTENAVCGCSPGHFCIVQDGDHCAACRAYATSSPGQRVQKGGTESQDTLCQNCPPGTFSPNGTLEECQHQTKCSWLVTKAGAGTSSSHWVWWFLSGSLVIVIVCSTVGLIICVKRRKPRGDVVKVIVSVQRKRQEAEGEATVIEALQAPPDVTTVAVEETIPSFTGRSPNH
Kind of test: flow cytometry, HEK293 transfectants. The method, then: as §1

For test [3], the target named is T3, human TNFR1 (human, UniProt P19438 30-455).
T3 construct: whole, on cells
T3 sequence (looked up): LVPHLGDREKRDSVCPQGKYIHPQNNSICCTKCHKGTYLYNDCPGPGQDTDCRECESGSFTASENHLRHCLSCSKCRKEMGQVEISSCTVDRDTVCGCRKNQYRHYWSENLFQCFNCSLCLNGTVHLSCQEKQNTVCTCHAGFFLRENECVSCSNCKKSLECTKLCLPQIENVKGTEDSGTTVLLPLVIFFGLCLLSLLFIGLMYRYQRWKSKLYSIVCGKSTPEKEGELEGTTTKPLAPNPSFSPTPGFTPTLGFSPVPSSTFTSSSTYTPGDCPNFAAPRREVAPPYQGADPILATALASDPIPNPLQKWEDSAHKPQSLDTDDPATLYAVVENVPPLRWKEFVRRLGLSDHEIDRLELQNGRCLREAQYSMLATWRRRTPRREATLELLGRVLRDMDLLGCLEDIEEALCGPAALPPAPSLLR
Kind of test: flow cytometry, HEK293 transfectants. The method, then: as §1

For test [4], the target named is T4, human CD40 on cells (human, UniProt P25942 21-277).
T4 construct: also called CD40 receptor on human B cells
Kind of test: flow cytometry, labelled CD40L on CD40-293T cells, antibody at 5 ug/ml. The method, then:
(§2) Percent ligand binding inhibition was calculated as [(CD40L binding gMFI in the absence of anti-CD40)−(CD40L binding gMFI in the presence of anti-CD40)]/(CD40L binding gMFI in the absence of anti-CD40). gMFI: geometric mean fluorescent intensity. All anti-CD40 antibodies show minimal effects on the ability of CD40L to bind to the CD40 receptor (Table 7).

The target of test [5] is T4, human CD40 on cells. Kind of test: flow cytometry, labelled CD40L on CD40-293T cells, antibody at 10 ug/ml. The method, then:
as §2

For test [6], the target named is T4, human CD40 on cells. Kind of test: flow cytometry, labelled CD40L on CD40-293T cells, antibody at 20 ug/ml. The method, then: as §2
The target of test [7] is T1, human TNFR2. The test can be described thus: flow cytometry, HEK293 transfectants vs control cells. Here is the method:
as §1

In test [8] the target is T2, human TNFR14. The description is as above. Here is the method: as §1
Test [9] deals with T3, human TNFR1. The test is described as above. The method, then: as §1
In a further test the target is T5, mouse CD40 on cells (mouse, UniProt P27512 20-289).
T5 construct: whole, on cells; also called mouse CD40 on HEK293 cells; CD40 on mouse B cells
T5 sequence (looked up): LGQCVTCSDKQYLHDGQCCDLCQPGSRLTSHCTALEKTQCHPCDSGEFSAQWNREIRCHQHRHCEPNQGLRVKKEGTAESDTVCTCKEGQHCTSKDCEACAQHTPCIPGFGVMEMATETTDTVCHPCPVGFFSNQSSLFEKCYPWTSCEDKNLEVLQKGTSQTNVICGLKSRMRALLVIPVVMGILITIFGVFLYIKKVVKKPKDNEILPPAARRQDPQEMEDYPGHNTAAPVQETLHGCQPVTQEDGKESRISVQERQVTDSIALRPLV
The description is as above. Here is the method:
as §1

T4 sequence (P25942 21-277 limits assumed): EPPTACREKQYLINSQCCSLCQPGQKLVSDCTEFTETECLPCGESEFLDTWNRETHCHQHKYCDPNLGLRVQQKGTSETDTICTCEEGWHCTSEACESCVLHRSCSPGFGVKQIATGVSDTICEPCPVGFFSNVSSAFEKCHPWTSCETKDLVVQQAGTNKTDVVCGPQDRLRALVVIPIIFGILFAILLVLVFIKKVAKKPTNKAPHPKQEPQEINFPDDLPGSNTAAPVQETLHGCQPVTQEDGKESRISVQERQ

B1: 29H10 (antibody, V domains shown)
VH: QVQLVQSGAEVTKPGASVKVSCKASGYTFAGYYMHWVRQAPGQGLEWMGWINPHSGGTNYAQKFQDRVTMTRDTSINTAYMELSRLRSDDTAVYYCARERISMVRGVGHNWFAPWGQGTLVTVSS
VL: DIQMTQSPSSLSASVGDRVTITCRASQDISNNLAWFQQKPGKPPKSLMYAASSLHSGVPSTFSGSGSGTDFTFTISSLQPEDFATYYCQQYNSYPLTFGGGTKVEIRR
notes: also called 4877-1
In the case of B1, the binding result with human TNFR2 [1], with human TNFR14 [2] and in the test with human TNFR1 [3] was “no binding” throughout. Also, the “Ligand Binding Inhibition (%)” value with human CD40 on cells [4] was -8%; in the test with human CD40 on cells [5], 1%; with human CD40 on cells [6], -7%. Also, the “fold over control (gMFI)” value with human TNFR2 [7] was found to be 0.88 fold; with human TNFR14 [8], 0.84 fold; with human TNFR1 [9], 0.98 fold; in the test with mouse CD40 on cells it was 0.8 fold.

B2: 37A6 (antibody, IgG4, V domains shown)
VH: QVQLVESGGGLVKPGGSLRLSCAASEFTFSDYYMSWIRQAPGKGLEWVSYISRSGDTIYYADSVKGRFTISRDNAKNSLYLQMNGLRAEDTAVYYCARDLAAGATGGLDCWGQGTLVTVSS
VL: SYELTQPPSVSVSPGQTASITCSGERLGNKYICWYQQKPGQSPVLVIYQDFKRPSGIPERFSGSNSGITATLTISGTQAMDEADYYCQAWDSRTVVFGGGTKLTVLG
notes: also called 4865-1
In the case of B2, the binding result with human TNFR2 [1], with human TNFR14 [2] and with human TNFR1 [3] was “no binding” throughout. Besides, the “Ligand Binding Inhibition (%)” value with human CD40 on cells [4] stood at 2%; with human CD40 on cells [5], 6%; with human CD40 on cells [6] it was 12%. Besides, the “fold over control (gMFI)” value with human TNFR2 [7] worked out at 0.87 fold; with human TNFR14 [8], 0.87 fold; with human TNFR1 [9] it was 0.99 fold; with mouse CD40 on cells it was 0.9 fold.

B3: 39C2 (antibody, IgG4, V domains shown)
VH: QVQLVQSGTEVKKPGASVKVSCKASGYTFPGYYMHWVRQAPGQGLEWMGWINPDSGGTKYTQKFQGRVTLTRDASVSTAYIDLNRLRSDDTAVYYCARERCRTTNCYLDYWGQGSLVTVSS
VL: QSALTQPASVSGSPGQSITISCTGTSSDVGNYNLVSWYQQHPGKAPKLMIYEVNRRPSGVSNRFSGSKSGNTASLTISGLQAEDEAEYYCCSYAGRDTFVVFGGGTKLTVLG
notes: also called 4887-1
For B3, the binding result with human TNFR2 [1], with human TNFR14 [2] and with human TNFR1 [3] was “no binding” each time. Further, the “Ligand Binding Inhibition (%)” value was -6% with human CD40 on cells [4], 3% in the test with human CD40 on cells [5] and 2% in the test with human CD40 on cells [6]. For the same molecule, the “fold over control (gMFI)” value was found to be 0.9 fold with human TNFR2 [7], 0.89 fold with human TNFR14 [8], 1 fold in the test with human TNFR1 [9] and 0.9 fold with mouse CD40 on cells.

B4: 36F3 (antibody, IgG4, V domains shown)
VH: QVQLQQSGPGLVKPSQTLSLTCAISGDSVSSSRTAWNWIRQSPSRGLEWLGRTYYRSKWYHDYSVSVKSRITIDPDTSKNQFSLQLNSVTPEDTAVYYCARGAAPFDYWGQGTLVTVSS
VL: EIVLTQSPGTLSLSPGERATLSCRASQSVSSNYLAWYQQKPGQAPRALIYAASNRAAGISDRFSGSGSGTDFTLTISRLEPEDFAVYFCQQYGSSPLTFGGGTKVEIKR
notes: also called 4891-1
On to B4, for which the binding result with human TNFR2 [1], with human TNFR14 [2] and in the test with human TNFR1 [3] was “no binding” in each case. Besides, the “Ligand Binding Inhibition (%)” value in the test with human CD40 on cells [4] turned out to be 10%; in the test with human CD40 on cells [5], 14%; in the test with human CD40 on cells [6], 1%. In addition, the “fold over control (gMFI)” value in the test with human TNFR2 [7] is 0.92 fold; with human TNFR14 [8], 0.88 fold; in the test with human TNFR1 [9] it was 0.99 fold; with mouse CD40 on cells it was 0.9 fold.

B5: 35F11 (antibody, IgG4, V domains shown)
VH: QVQLVESGGGVVQPGRSLRLSCAASGFTLSSYGMHWVRQAPGKGLEWVAVIWYDGSNKYYADSVKGRVTISRDNSKNTLYLQMNSLRAEDTAVYYCTRDGRNYVYFDNWGQGTLVTVSS
VL: QSALTQPRSVSGSPGQSVTISCTGTSSDVGGYIFVSWYQQHPGKAPKLMIYDVSKRPSGVPDRFSGSKSVNTASLTISGLQAEDETDYYCCSYAGNYTYVFGTGTKVTVLG
notes: also called 4868-1
Consider B5, for which the binding result with human TNFR2 [1], with human TNFR14 [2] and with human TNFR1 [3] was “no binding” throughout. The “Ligand Binding Inhibition (%)” value with human CD40 on cells [4] is -5%; with human CD40 on cells [5], 51%; with human CD40 on cells [6] it was 8%. The “fold over control (gMFI)” value with human TNFR2 [7] turned out to be 0.85 fold; with human TNFR14 [8] it was 0.74 fold; in the test with human TNFR1 [9], 1 fold; with mouse CD40 on cells, 0.8 fold.

B6: 33H6 (antibody, IgG4, V domains shown)
VH: QVQLVQSGAEVKKPGASVKVSCKASGYTFPGYYMYWLRQAPGQGLEWMGWINPDSGDTNYAQKFQGRVTMTRDTSISTAFMELSRLRSDDTAVYYCAREKPRYFDSFYYYLMDVWGQGTTVTVSS
VL: DIQMTQSPSSLSASVGDRVTITCRAGQNISRHLNWYQQNPGKAPKVLIHPASSLPSGVPSRFSGSGSGTDFSLTISSLQPEDFGTYFCQQSYSTPPTFGGGTKVELKR
notes: also called 4883-1
For B6, the binding result with human TNFR2 [1], with human TNFR14 [2] and with human TNFR1 [3] was “no binding” each time. In addition, the entries for the “Ligand Binding Inhibition (%)” value in the test with human CD40 on cells [4], with human CD40 on cells [5] and in the test with human CD40 on cells [6] were 4%, 11% and 7%, respectively. Also, the “fold over control (gMFI)” value amounted to 0.81 fold with human TNFR2 [7], 0.8 fold in the test with human TNFR14 [8], 1 fold with human TNFR1 [9] and 0.9 fold with mouse CD40 on cells.
